# Measurements published in the nanobody polyreactivity screen of Harvey et al. (2022).
# Assay: yeast display, Sf9 membrane polyspecificity reagent, FACS + sequencing; frameworks hold sequencing errors
# Summary of the method: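 A synthetic nanobody library was expressed on Saccharomyces cerevisiae BJ5465 by galactose induction for 36–48 hours. The library was stained for 1 hour at 4 °C with 10% biotinylated, detergent-solubilized Sf9 membrane reagent and enriched with streptavidin microbeads before FACS. Low and high (top ~1%) gates were set on anti-HA fluorescence for expression and streptavidin fluorescence for reagent binding, and each polyreactivity label reflects the gate of origin.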
row,Sequence,polyreactivity (PSR sort gate)
1,QVQLVESGGGLVQAGGSLRLSCAASGRTFIYYAMGWYRQAPRKERELVATIRGSSTRTYYADSVKGRFTISRDNAKNTVYLQMNSLKPEDTAVYYCAARGTSRKYYYWGQGTQVTVSA,high polyreactivity
2,QVQLVESGGGLVQAGGSLRLSCAASGRTFKHYAMGWYRQAPGKERELVAAITSGGSTYYADSVKGRFTISRDNAKNTVYLQMNSLKPEDTAVYYCNKESYFDTYRRYDSWGQGTQVTVSS,low polyreactivity
3,QVQLVESGGGLVQAGGSLRLSCAASGRTFKKKVMGWYRHAPGKERELFAAISNGGSTNYADSVKGRFTISRDNSKNTDYLQMNSLKPEDTAVYDCAAYITWGGYHTPNWGYDYWGQGTQVTVSS,low polyreactivity
4,QVQLVESGGGLVQAGGSLRLSCAASGRTFKKYAMGWYSQAPGKERELVAAITVSGGSTYYADSVKGRFTVSRDNAKNTVYLQMNSLKPEDTAVYYCAAGSYSRYLFSLYFDFDYWGQGNQVTVSS,low polyreactivity
5,QVQLVESGGGLVQAGGSLRLSCAASGRTFKLYAMGWYRQAPGKERELVAAISRSGGSTYYADSVKGRFTISRDNAKNTVYLQMNSLKPEDTAVYYCNRRQGYHGDYDYWGQGTQVTVSS,high polyreactivity
6,QVQLVESGGGLVQAGGSLRLSCAASGRTFKNYAMGWYRQSPGKERELVAVISRRGSSTYYADSVKGRFTISRDNAKNTVYLQMNSLKPEDTAVYYSAARLGVPYPYIAYDYWGQGTQVTVSS,high polyreactivity
7,QVQLVESGGGLVQAGGSLRLSCAASGRTFKPYAMGWYRQAPGKERELVAAISSGVSTHYADSVKGRFTISRDNAKNTVYLQMNSLKPEDTAVYYCAADYWVNYWFDYWGQGTQVTVSS,low polyreactivity
8,QVQLVESGGGLVQAGGSLRLSCAASGRTFKPYTMGWYRQAPGKERELVATISTGTTSTYYADSVKGRFTISRDNAKNTVYLQMNSLKPEDTAVYYCAADSDSPVTYQSEDALEYWGQGTQVTVSS,low polyreactivity
9,QVQLVESGGGLVQAGGSLRLSCAASGRTFKQYAMGWYSQAPGKERELVAAISRTGGRTYYADSVKGRFTISRDNAKNTVYLQMNSLKPEDTAVYFCNAVYYWYKGDYWGQGTQVTVSS,high polyreactivity
10,QVQLVESGGGLVQAGGSLRLSCAASGRTFKRNAKGWYRQAPGKERELVAAISGTGASTYYADSVKGRFTISRDNAKNTVYLQMNSLKPEDTAVYYCAKYRYISNPVYLGDYWGQGTQVTVSS,high polyreactivity
11,QVQLVESGGGLVQAGGSLRLSCAASGRTFKRNTMGWYRQAPGKERELVAAISGTGSTNYADSVKGRFTISRDNAKNTVYLQMNSLKPEDTAVYYCGADDFSTVEYDYWGQGTQVTVSS,low polyreactivity
12,QVQLVESGGGLVQAGGSLRLSCAASGRTFKSYAMGWYRQAPGKERELVAAITWSGGSTYYADSVKGRFTISRDNAKNTVYLQMNSLKPEDTAVYYCAADSVYYYWYGYDYWGQGTQVTVSS,low polyreactivity
13,QVQLVESGGGLVQAGGSLRLSCAASGRTFKWYAMGWYRQAPGKERELVASISWSGGGTYYADSVKGRFTISRDNAKNTVYLQMNSLKPEDTAVYECAAEYYNWGDYGYDYWGQGTQVTVSS,high polyreactivity
14,QVQLVESGGGLVQAGGSLRLSCAASGRTFKYNAMGWSRPAPGKERELVAAISWSGGRTYYADSVKGRFTISRDNAKNTVYLQMNSLKPEDTAVYYCAAGVFKKYRPSGRYYYWGHGTQVTVSS,high polyreactivity
15,QVQLVESGGGLVQAGGSLRLSCAASGRTFKYNAMGWYRQAPGKERELVAAISSDDSTNYADSVKGRFTISRDNAKNTVYLQMNSLKPEDTAVYYCAARYGYSKWPDRVQAYKHDYWGQGTQVTVSS,low polyreactivity
16,QVQLVESGGGLVQAGGSLRLSCAASGRTFKYNAMGWYRQAPGKERELVAAISSTGSTNYADSVKGRFTISRDNAKNTVYLQMNSLKPEDTAVYYCAASYYFVQWGWYYYWGQGTQVTVSS,low polyreactivity
17,QVQLVESGGGLVQAGGSLRLSCAASGRTFKYNAMGWYRQAPGKERELVATISGSGGRTYYADSVKGRFTISRDNAKNTVYLQMNSLKPEDTAVYYCNAPRVKWLDWGQGTQVTVSS,high polyreactivity
18,QVQLVESGGGLVQAGGSLRLSCAASGRTFKYNAMGWYRQAPGNERELVAAISRSGGSTYYADSVKGRFTISRDNAKNTVYLQMNSLKPEDTAVYYCNAEYLWIRHIAEDYWGQGTQVTVSS,low polyreactivity
19,QVQLVESGGGLVQAGGSLRLSCAASGRTFKYYAMGWYRQAPGKERELVAAISSRGGSTYYADSVKGRFTISRDNAKNTVYLQMNSLKPEDTAVYYCAKGTYLSTSTVANDYWGQGTQVTVSS,high polyreactivity
20,QVQLVESGGGLVQAGGSLRLSCAASGRTFKYYAMGWYRQAPGKERELVATISYNGASTYYADSVKGRFTISRDNAKNTVYLQMNSLKPEDTAVYYCAAGYLWRGRLGYWGQGTQVTVSS,high polyreactivity

row,Sequence,polyreactivity (PSR sort gate)
1,QVQLVESGGGLVQAGGSLRLSCAASGRTFKYYAMGWYSQAPGKERELVAAITRSGVSTSYADSVKGRFTISRDNAKNTVYLQMNSLKPEDTAVYYCNVYGYTYYTRGVGYWGQGTQVTVSS,high polyreactivity
2,QVQLVESGGGLVQAGGSLRLSCAASGRTFLDNAMGWYRQAPGNEWELVATICSSGGTRYYADSVKGSFTISRDNAKNTVYLPMHSQKPEDTAVYYCNALWWGRYYRPYVTPVLGRMEYWGQGTQVTVSS,low polyreactivity
3,QVQLVESGGGLVQAGGSLRLSCAASGRTFLFNGMGWYRQAPGKERELVASITRGGSTYADSVKGRFTISRDNAKNTVYLQMNSLKPEDTAVYYCAALTSRTYLWTTRPYDYWGQGTQVTVSS,high polyreactivity
4,QVQLVESGGGLVQAGGSLRLSCAASGRTFLGNAMGWYRQAPGKERELVAAIRYSGGRTYYADSVKGRFTISRDNANNTVYLQMNSLKPEDTAVYYCAAELDGSNYPLDYWGQGTKVTVSS,low polyreactivity
5,QVQLVESGGGLVQAGGSLRLSCAASGRTFLGYAMGWYRQAPGKERELVAAISWDGTSTYYADSVKGRFTISRDNAKNTVYLQMNSLKPEDTAVYDCAAQLTDYQSKTLSYDYWGQGTQVTVSS,low polyreactivity
6,QVQLVESGGGLVQAGGSLRLSCAASGRTFLGYAMGWYRQAPGKERELVAGITSGGRTYYADSVKGRFTNSRDNAKNTVYLQMNSLKPEDTAVYYCAADTHGYDPMDYWGQGTQVTVSS,high polyreactivity
7,QVQLVESGGGLVQAGGSLRLSCAASGRTFLHYAMGWYRQAPGKEREFVAAIRTSGTSTYYADSVKGRFTISRDNAKNTVYLQMNSLKPEDTAVYYCAVARGSGWYWRSDYWGQGTQVTVSS,high polyreactivity
8,QVQLVESGGGLVQAGGSLRLSCAASGRTFLINAMGWYRQAPGKERELVAGINRNGGTTYYADSVKGRFTISRDNAKNTVYLQMNSLKPEDTAVYYCAKRYPSWFNYWGQGTQVTVSS,high polyreactivity
9,QVQLVESGGGLVQAGGSLRLSCAASGRTFLIYAMGWYRQAPGKERELVAAITNAVDSTYYADSVKGRFTISRDNAKNTVYLQMNSLKPEDTAVYYCNADTVVEWYSPSREYDYWGQGTQVTVSS,low polyreactivity
10,QVQLVESGGGLVQAGGSLRLSCAASGRTFLPNDMGWYRQAPGKERELVAAITDSGGDTYYADSVKGRFTISRDNAKNTVYLQMNSLKPEDTAVYYCASDYYYYGSYYPVEYWGQGTQVTVSS,high polyreactivity
11,QVQLVESGGGLVQAGGSLRLSCAASGRTFLPNPMGWYRPAPGKERELVAVITSVGSTNYADSVKGRCTISRDNAKNTVYLQMNSLKPEDTAVYFCAALKPRTRRAGFNYWGQGTQVTVSS,low polyreactivity
12,QVQLVESGGGLVQAGGSLRLSCAASGRTFLPYAMGWYRQAPGKERELVAAIDSSGGSTYYADSVKGRFTISRDNAKNTVYLQMNSLKPEDTAVYYCAADLYSSSYLYDSWGQGTQVTVSS,low polyreactivity
13,QVQLVESGGGLVQAGGSLRLSCAASGRTFLPYAMGWYRQAPGKERELVAAIDSSGGSTYYADSVKGRFTISRDNAKNTVYLQMNSLKPEDTAVYYCAADLYSSYYLYDSWGQGTQVTVSS,low polyreactivity
14,QVQLVESGGGLVQAGGSLRLSCAASGRTFLRNAMGWYRQAPGKERELVAAITSSGGRTYYADSVKGRFTISRDNAKNTVYLQMNSLKPEDTAVYYCATDTGWPGRDYWGQGTQVTVSS,high polyreactivity
15,QVQLVESGGGLVQAGGSLRLSCAASGRTFLRNAMGWYRQAPGKERELVAAITSSGGRTYYADSVKGRFTISRDNAKNTVYLQMNSLKPEDTAVYYCAVDVTVREWFEYYYWGQGTQVTVSS,high polyreactivity
16,QVQLVESGGGLVQAGGSLRLSCAASGRTFLRNDMVWYRQAPGKERELVAAISYSGGRTYYAVSVKGRFTISRDNAKNTVYLQMNSLKPEDTAVYYCAADRFFKAIRPYDYWGQGTQVTVSS,high polyreactivity
17,QVQLVESGGGLVQAGGSLRLSCAASGRTFLRYARGWYRQAPGKERELVAAISWSGGRTYYADSVKGRFTISRDNAKNTVYLQMNSLKPEDTAVYYCNKVVLYGAHYYYWGQGTQVTVSS,high polyreactivity
18,QVQLVESGGGLVQAGGSLRLSCAASGRTFLSYAMGWYRQAPGKDRELVAAIRRGSSTYYADSVKGRFTISRDNAKNTVYLQMNSLKPEDTAVYYCAARGRYRIGPGRYGKRYDYWGQGTQVTVSS,high polyreactivity
19,QVQLVESGGGLVQAGGSLRLSCAASGRTFLVYAMGWYRQAPGKERELVAAISYSDGNTYYADSVKGRFTISRDHAKNTVYLQMNSLKPEDTAVYYCNAVTYGYPYDYWGQGTQVTVSS,low polyreactivity
20,QVQLVESGGGLVQAGGSLRLSCAASGRTFLVYAMGWYRQAPGKERELVAAITSGGDTYADSVKGRFTISRDNAKNTVYLQMNSLKPEDTAVYYCAVQPDYFIVLWEYDYWGQGTQVTVSS,high polyreactivity
